# Laboratory results published in paper PMC2994726 (PLoS ONE, 2010).
# T1: FLAG-tagged rat AT1a receptor (rAT1aR), WT, full length (rat, UniProt P25095 1-359)
# T1 construct: Angiotensin II type 1a receptor (AT1aR), rat, full length; also called AT1R; Angiotensin II type 1 receptor; source: COS-7, transiently transfected, on whole cells; not shown: FLAG, N-terminal, kept
# T1 sequence (looked up): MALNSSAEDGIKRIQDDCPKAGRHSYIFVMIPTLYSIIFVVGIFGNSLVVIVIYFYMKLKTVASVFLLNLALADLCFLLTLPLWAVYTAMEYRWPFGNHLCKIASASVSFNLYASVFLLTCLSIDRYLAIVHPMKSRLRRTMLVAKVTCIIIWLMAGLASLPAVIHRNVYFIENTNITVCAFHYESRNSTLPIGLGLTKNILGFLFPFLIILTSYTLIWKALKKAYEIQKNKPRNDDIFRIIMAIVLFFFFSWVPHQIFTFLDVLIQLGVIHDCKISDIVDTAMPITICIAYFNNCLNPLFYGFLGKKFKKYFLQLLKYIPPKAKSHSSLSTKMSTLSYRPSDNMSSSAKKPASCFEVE
# T2: FLAG-tagged rat AT1a receptor WT truncated after serine 331 (WT 331Δ) (rat, UniProt P25095 1-331)
# T2 construct: source: COS-7, transiently transfected, on whole cells; not shown: FLAG, N-terminal, kept
# T2 sequence (looked up): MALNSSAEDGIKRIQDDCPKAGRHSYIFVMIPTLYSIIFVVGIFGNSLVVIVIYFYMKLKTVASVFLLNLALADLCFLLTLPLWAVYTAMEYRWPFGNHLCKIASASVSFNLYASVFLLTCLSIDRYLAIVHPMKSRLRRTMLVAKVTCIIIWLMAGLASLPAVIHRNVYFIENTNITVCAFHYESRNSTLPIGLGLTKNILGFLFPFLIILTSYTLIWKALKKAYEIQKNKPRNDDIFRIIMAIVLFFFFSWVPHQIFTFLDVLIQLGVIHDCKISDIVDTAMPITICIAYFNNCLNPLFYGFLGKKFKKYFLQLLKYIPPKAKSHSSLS
# Tests used:
# [1] = molecular target: Luc-tagged rat AT1a receptor DRY/AAY truncated after serine 331 (DRY/AAY 331Δ) (rat) (UniProt P25095); assay: FRET or BRET; BRET2 in live HEK293 cells co-transfected with Luc-tagged rAT1aR and GFP2-β-arrestin2; dose-response to Ang II, read 15 min after agonist addition
# [2] = molecular target: Luc-tagged rat AT1a receptor DRY/AAY, full length (rat) (UniProt P25095); assay: as above
# [3] = molecular target: Luc-tagged rat AT1a receptor DRY/AAY truncated after serine 331 (DRY/AAY 331Δ) (rat) (UniProt P25095); assay: FRET or BRET; BRET2 in live HEK293 cells co-transfected with Luc-tagged rAT1aR and GFP2-β-arrestin2; dose-response to SII Ang II, read 15 min after agonist addition
# [4] = molecular target: Luc-tagged rat AT1a receptor DRY/AAY, full length (rat) (UniProt P25095); assay: as above
# [5] = molecular target: FLAG-tagged rat AT1a receptor DRY/AAY truncated after serine 331 (DRY/AAY 331Δ) (rat) (UniProt P25095); assay: radioligand binding; whole-cell heterologous competition on transfected COS-7 cells: 1 nM 3H-Ang II tracer and increasing unlabeled SII Ang II, 3 h at 4°C; pKi calculated from Ang II KD values of experiments run in parallel
# [6] = molecular target: FLAG-tagged rat AT1a receptor DRY/AAY, full length (rat) (UniProt P25095); assay: as above
# [7] = molecular target: T1, FLAG-tagged rat AT1a receptor (rAT1aR), …; assay: as above; conditions: one partner purified
# [8] = molecular target: T2, FLAG-tagged rat AT1a receptor WT …; assay: as above; conditions: one partner purified
molecule,measurement,setting,value
GFP2-tagged β-arrestin2 (from UniProt P32121 1-409) (natural protein),pEC50 of Ang II for induced recruitment (BRET2),[1],8.2
same,pEC50 of Ang II for induced recruitment (BRET2),[2],8.2
same,"pEC50 of SII Ang II for induced recruitment (BRET2, from normalized curves)",[3],7
same,pEC50 of SII Ang II for induced recruitment (BRET2),[4],7.5
Sar1-Ile4-Ile8 (SII) Ang II (peptide),pKi,[5],6.2
same,pKi,[6],6.1
GRVIIHPI (sarcosine at position 1 (Sar1)) [Sar1-Ile4-Ile8 (SII) Ang II],pKi,[7],5.9
same,pKi,[8],6
